Molecular target: T1, human NOTCH3 extracellular domain (human, UniProt Q9UM47 40-1643)
T1 construct: In the tissue IHC the target is endogenous NOTCH3 in tumor sections; also called NOTCH3 ECD
Test: screening by FACS, Western blot and IHC on FFPE pellets of HEK-293 cells transiently transfected with NOTCH ECD constructs
Source text: Screening was first done by FACS, followed by Western blot analyses and then in IHC assays using HEK-293 cells transiently transfected with NOTCH1, NOTCH2, NOTCH3, or NOTCH4 ECD constructs. Starting with 68 supernatants from hybridoma cells, seven candidate antibodies were selected for further testing and optimization in IHC assays, 122M23, 122M25, 122M26, 122M27, 122M35, 122M36, and 122M40. […] The desired antibody needed to be specific for NOTCH3 ECD, so the staining had to be predominantly membrane localized, with minimal or no detectable background non-specific staining in transiently transfected cell pellets in FFPE format. In addition, the antibody had to give appropriate results on positive and negative control tissues.

T1 sequence (Q9UM47 40-1643 limits assumed): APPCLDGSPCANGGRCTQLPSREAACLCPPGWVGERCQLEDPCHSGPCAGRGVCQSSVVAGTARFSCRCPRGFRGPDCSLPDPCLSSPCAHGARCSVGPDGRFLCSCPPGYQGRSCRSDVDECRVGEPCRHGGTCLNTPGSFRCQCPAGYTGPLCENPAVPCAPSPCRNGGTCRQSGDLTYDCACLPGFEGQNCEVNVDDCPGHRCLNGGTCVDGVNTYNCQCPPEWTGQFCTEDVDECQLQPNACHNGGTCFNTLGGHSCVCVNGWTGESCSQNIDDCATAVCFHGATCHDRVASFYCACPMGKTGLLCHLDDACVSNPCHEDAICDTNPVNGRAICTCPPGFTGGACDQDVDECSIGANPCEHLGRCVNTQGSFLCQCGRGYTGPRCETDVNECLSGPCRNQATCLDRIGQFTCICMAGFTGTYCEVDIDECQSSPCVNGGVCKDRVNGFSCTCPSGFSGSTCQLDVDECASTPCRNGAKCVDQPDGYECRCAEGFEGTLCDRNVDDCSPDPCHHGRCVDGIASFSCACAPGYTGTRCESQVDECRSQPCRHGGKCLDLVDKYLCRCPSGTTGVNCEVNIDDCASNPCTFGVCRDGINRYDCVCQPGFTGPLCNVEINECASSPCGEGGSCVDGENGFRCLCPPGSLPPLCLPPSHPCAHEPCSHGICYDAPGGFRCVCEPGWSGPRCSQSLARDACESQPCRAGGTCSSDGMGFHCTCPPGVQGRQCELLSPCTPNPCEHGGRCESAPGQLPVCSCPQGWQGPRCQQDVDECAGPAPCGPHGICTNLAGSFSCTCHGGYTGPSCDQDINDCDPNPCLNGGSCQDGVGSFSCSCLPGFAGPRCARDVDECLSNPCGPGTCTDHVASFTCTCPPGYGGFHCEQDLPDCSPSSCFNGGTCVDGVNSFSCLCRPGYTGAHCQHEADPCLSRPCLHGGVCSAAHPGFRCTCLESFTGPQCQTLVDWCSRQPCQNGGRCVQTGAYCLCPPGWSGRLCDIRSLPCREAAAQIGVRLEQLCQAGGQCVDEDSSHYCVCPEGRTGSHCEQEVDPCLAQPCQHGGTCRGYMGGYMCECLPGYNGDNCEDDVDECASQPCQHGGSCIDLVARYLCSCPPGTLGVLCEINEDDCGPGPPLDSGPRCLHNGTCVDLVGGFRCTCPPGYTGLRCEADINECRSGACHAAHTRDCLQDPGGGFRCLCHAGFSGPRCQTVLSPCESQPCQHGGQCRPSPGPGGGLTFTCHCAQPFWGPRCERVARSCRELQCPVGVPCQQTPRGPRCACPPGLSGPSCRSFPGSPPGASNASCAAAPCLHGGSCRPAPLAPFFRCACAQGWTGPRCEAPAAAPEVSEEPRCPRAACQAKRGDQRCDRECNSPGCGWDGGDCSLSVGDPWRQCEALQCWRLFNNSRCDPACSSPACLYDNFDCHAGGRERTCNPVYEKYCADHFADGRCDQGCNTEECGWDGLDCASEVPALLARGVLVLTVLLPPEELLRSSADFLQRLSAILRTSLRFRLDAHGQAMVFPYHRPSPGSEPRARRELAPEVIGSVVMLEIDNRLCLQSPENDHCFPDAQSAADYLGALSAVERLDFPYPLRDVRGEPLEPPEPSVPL

binding result: binds
B1: anti-NOTCH3 antibody 122M23 (antibody, V domains shown)
VH: QVQLQQSGAELARPGASVKMSCKASGYTFTKYTIHWVAQKPGQGLEWIGYINPSNDYTNYNQTFKDKATLTADKSSTTAYMQLISLTSADSTVFYCARGTTPYSLDYWGQGTSVTVSS
VL: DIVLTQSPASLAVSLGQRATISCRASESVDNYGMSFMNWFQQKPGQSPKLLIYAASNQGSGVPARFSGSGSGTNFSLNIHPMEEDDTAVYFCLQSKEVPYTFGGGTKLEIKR
notes: Murine monoclonal antibody from a hybridoma (ATCC PTA-121154); also called murine monoclonal antibody 122M23
